From patent US20230365658A1

Target: SARS-CoV-2 spike (S) glycoprotein, artificially-constructed BA.2.75+R346T (SARS-CoV-2), P0DTC2
Assay: cell-based or functional assay

B1: mAb_v2130Vanderbilt_184_20220114_00112 (antibody, V domains shown)
VH: EVQLVESGGGLVKPGGSLRLSCAASGFTFRDVWMSWVRQAPGKGLEWVGRIKSKIDGGTTDYAAPVKGRFTISRDDSKNTLYLQMNSLKTEDTAVYYCTTAGSYYYDTVGPELPEGKFDYWGQGTLVTVSS
VL: not shown
How did the pseudoviral neutralization IC50 turn out when B1 was run?
Its pseudoviral neutralization IC50 is 0.674 µg/mL.
